Source: patent publication US8765721B2, “Composition comprising phosphatidyl serine and an antigen or allergen and the use thereof” (Vaccine Technology Limited, priority 2004, dated 2014)

Legend:
Format in all cases: in vivo, rat
Details in all cases: no phosphatidyl serine, pooled group serum
IgG2a = test: Ovalbumin-specific IgG2a ELISA of serum of immunised rats
Experimental: (§1) Rats were injected with vaccine compositions comprising the ovalbumin antigen with and without di-oleoyl phosphatidyl serine, lyso-oleoyl phosphatidyl serine or stearoyl(X1)-arachidonoyl(X2) phosphatidyl serine and the concentrations of IgE, IgA and IgG are compared.
(§2) The animals were acclimatised for a period of 5 days prior to dosing. During the acclimatisation period animals were observed twice daily during the working week and once on each day during the weekend to evaluate the health status of the animals. Rats were then allocated to the following dose groups using computer-generated random order numbers.
(§3) On day 0, 20 μg of ovalbumin (OA) in phosphate buffered saline (PBS) with alhydrogel (AHG) adjuvant in a final volume of 0.5 mL was administered.
(§4) On days 21 and 42, 20 μg of ovalbumin (OA) in phosphate buffered saline (PBS) with the relevant test compound in a final volume of 0.5 ml was administered.
(§5) In each case, 0.5 mL of inoculum was injected subcutaneously into the scruff of the neck. […]
(§6) Serum was prepared by centrifugation of the blood sample at 2,500 rpm for 10 minutes and frozen at −20° C. The samples were then analysed by ELISA to establish the concentration of IgE, IgA and IgG1, IgG2a and IgG2b.
(§7) The purpose of an ELISA is to determine whether a particular protein is present in a sample and then enables quantification of how much is present. By coating the bottom of wells with ovalbumin (OVA) it is possible to bind anti-OVA specific antibodies. To detect only anti-OVA IgA antibodies anti-rat IgA conjugated to HRP was used as a secondary antibody. Quantification of specific antibodies in the rat sera samples was performed using antibody titrations. The data was reported as endpoint titers. Endpoint titers are defined as the last serum dilution giving an optical density value equal to twice the background optical density for the ELISA plate (buffer).

IgG1 = test: Ovalbumin-specific IgG1 ELISA of serum of immunised rats
Experimental: as §1, §2, §3, §4, §5, §6
as §7, with “To detect only anti-OVA IgA antibodies anti-rat IgA conjugated to HRP was used as a secondary antibody.” left out

IgE = test: Ovalbumin-specific IgE ELISA of serum of immunised rats
Experimental: as §1, §2, §3, §4
(§8) In each case, 0.5 mL of inoculum was injected subcutaneously into the scruff of the neck.
(§9) […] A blood sample was also taken from each animal on Days 15, 22, 29, 36, 43, 50, 57 and 64.
as §6, §7

IgA = test: Ovalbumin-specific IgA ELISA of serum of immunised rats
Experimental: as §1, §2, §3, §4, §8
On Day 0 a pre-inoculation blood sample was taken. A blood sample was also taken from each animal on Days 15, 22, 29, 36, 43, 50, 57 and 64.
as §6, §7

IgG2b = test: Ovalbumin-specific IgG2b ELISA of serum of immunised rats
Experimental: as §1, §2, §3, §4, §8, §9, §6, §7

B1: ovalbumin (protein, UniProt P01012 2-386, looked up)
Ovalbumin: GSIGAASMEFCFDVFKELKVHHANENIFYCPIAIMSALAMVYLGAKDSTRTQINKVVRFDKLPGFGDSIEAQCGTSVNVHSSLRDILNQITKPNDVYSFSLASRLYAEERYPILPEYLQCVKELYRGGLEPINFQTAADQARELINSWVESQTNGIIRNVLQPSSVDSQTAMVLVNAIVFKGLWEKAFKDEDTQAMPFRVTEQESKPVQMMYQIGLFRVASMASEKMKILELPFASGTMSMLVLLPDEVSGLEQLESIINFEKLTEWTSSNVMEERKIKVYLPRMKMEEKYNLTSVLMAMGITDVFSSSANLSGISSAESLKISQAVHAAHAEINEAGREVVGSAEAGVDAASVSEEFRADHPFLFCIKHIATNAVLFFGRCVSP
notes: Group 2: ovalbumin antigen, 20 μg on days 21 and 42 without phosphatidyl serine, after Ova + Alh on day 0
320: IgG1 endpoint titer (IgG1; Day 15) | IgA endpoint titer (IgA; Day 36) | IgA endpoint titer (IgA; Day 43)
20: IgE endpoint titer (IgE; Day 36) | IgE endpoint titer (IgE; Day 43)
20480: IgG2a endpoint titer (IgG2a; Day 50) | IgG2a endpoint titer (IgG2a; Day 57) | IgG1 endpoint titer (IgG1; Day 36) | IgG1 endpoint titer (IgG1; Day 64)
5120: IgG2a endpoint titer (IgG2a; Day 43) | IgG2b endpoint titer (IgG2b; Day 57) | IgG2b endpoint titer (IgG2b; Day 64)
10240: IgG2a endpoint titer (IgG2a; Day 64) | IgG1 endpoint titer (IgG1; Day 29) | IgG1 endpoint titer (IgG1; Day 43) | IgG1 endpoint titer (IgG1; Day 50) | IgG1 endpoint titer (IgG1; Day 57)
640: IgG2a endpoint titer (IgG2a; Day 15) | IgE endpoint titer (IgE; Day 50) | IgA endpoint titer (IgA; Day 50) | IgA endpoint titer (IgA; Day 64) | IgG2b endpoint titer (IgG2b; Day 22) | IgG2b endpoint titer (IgG2b; Day 29) | IgG2b endpoint titer (IgG2b; Day 36) | IgG2b endpoint titer (IgG2b; Day 43) | IgG2b endpoint titer (IgG2b; Day 50)
2560: IgG2a endpoint titer (IgG2a; Day 36) | IgG1 endpoint titer (IgG1; Day 22)
80: IgE endpoint titer (IgE; Day 57) | IgA endpoint titer (IgA; Day 29)
40: IgE endpoint titer (IgE; Day 64)
1280: IgG2a endpoint titer (IgG2a; Day 22) | IgG2a endpoint titer (IgG2a; Day 29) | IgA endpoint titer (IgA; Day 57) | IgG2b endpoint titer (IgG2b; Day 15)
0: IgG2a endpoint titer (IgG2a; Day 1) | IgG1 endpoint titer (IgG1; Day 1) | IgE endpoint titer (IgE; Day 1) | IgE endpoint titer (IgE; Day 15) | IgE endpoint titer (IgE; Day 22) | IgE endpoint titer (IgE; Day 29) | IgA endpoint titer (IgA; Day 1) | IgA endpoint titer (IgA; Day 15) | IgA endpoint titer (IgA; Day 22) | IgG2b endpoint titer (IgG2b; Day 1)
